The assay has as its target SARS-CoV-2 spike (SARS-CoV-2, reference (Wuhan-Hu-1) …, UniProt P0DTC2). The experiment in a line: ELISA. (In general: ELISA stands for enzyme-linked immunosorbent assay.)

B1: DH1047 IgG (antibody, V domains shown)
VH: QVQLVQSGAEVKKPGASVQVSCQASANTFTNHYIHWVRQAPGQGLEWMGIIYPTGGNTIYAQGFQGRVTMTRDTSLNTIYLELSSLRSEDTAVYYCARDVRVDDSWSGYDLLSGGTYFDYWGQGTLVTVSS
VL: not shown
Take B1: the binding result was “binds”.

The values are drawn from paper PMC8095197 (bioRxiv, 2021).
